Measurements taken from patent US20110008774A1 (CORNELL RESEARCH FOUNDATION, published 2011).

Molecular target: AMEF β-gal (normally inactive β-galactosidase variant, AMEF 959) (E. coli)
Test: cell-based or functional assay

| Binder | AMEF β-gal activation in vivo (whole cell X-gal hydrolysis, absorbance at 620 nm) |
| --- | --- |
| scFv13 variant S20 (scFv) scFv: MADYKDDDDKGGSAEVQLVESGGGLVKPGGSLRLSCAASGFTFSNNSMNWVRQAPGKGLEWVSSISSSSSYIYYADFVKGRFTISRDNAKNSLYLQMNSLRAEDTAVYYCARSSTTIFGGGMDVWGRGTLVTVSSGGGGSGEGGSGGGGSQSVLTQPASVSGSPGQSITISCAGTSSDVGGYNYVSWYQQHPGKAPKLMIYEDSKRPSGVSNRFSGSKSGNTASLTISGLQAEDEADYYCSSYTTRSTRVFGGGTKLAVLGAAAEQKLISEGDLNGAAELHHHHHH | ~2 fold over wt scFv13 |
| scFv13 variant S23 (scFv) scFv: MADYKDDDDKGGSAEVQLVESGGGLVKPGGSLRLSCAASGFTFSNYSMNWVRQAPGKGLEWISSISSSSSYIYYADFVKGRFTISRDNVKNSLYLQMNSLRAEDTAVYYCARSSITIFGGGMDVWGRGTLVTVSSGGGGSGGGGSGGGGSQSVLTQPASVSGSPGQSITISCAGTSSDVGGYNYVSWYQQHLGKAPKLMIYEGSKRSSGVSNRFSGSKSGNTASLTISGLQAEDEADYYCSSYTTRSTRVFGGGTKLAVLGAAAEQKLISEEDLNGAAELHHHHHH | ~2 fold over wt scFv13 |
